Data: US20100056445A1, “ADIPONECTIN FOR THE TREATMENT AND DIAGNOSIS OF ALBUMINURIA” (THOMAS JEFFERSON UNIVERSITY, priority 2006, published 2010)
Entries after “also recorded” stand apart in the source; their conditions may differ.

Experiments:
[1] = test system: Adiponectin KO (Ad−/−) mice; assay: Podocyte foot process effacement by electron microscopy in adiponectin KO mice; type: in vivo, mouse; details: gAd treatment, EM
Experimental: Adiponectin administration and animal studies: The mice were treated with 25 μg of recombinant human globular domain adiponectin (gAd; PepROTech, Rocky Hill, N.J.) subcutaneously twice daily for 10 consecutive days. The control animals were given PBS alone. 24-hour urines from each mouse were collected twice: one week before the injections and on the last day of the injections. The urine albumin and creatinine were measured with a mouse Albuwell ELISA kit and a Creatinine Companion kit (Exocell, Philadelphia, Pa.) (25,26). The mice were sacrificed five hours after the final gAd injection under anesthesia. Portions of kidney cortex were fixed in buffered formalin and embedded in paraffin. […]
Interventional animal studies: The mice were treated with 25 μg of recombinant human globular domain adiponectin gAd (PepROTech, Rocky Hill, N.J.), administered 25 μg/mouse twice a day for 10 consecutive days or full-length adiponectin (fAd) was administered using an AAV vector (AAV2/8 CMV fAd virus 4×1011 GC/mouse for 10 days). […] The urine albumin and creatinine were measured with a mouse Albuwell ELISA kit and a Creatinine Companion kit (Exocell, Philadelphia, Pa.) (26, 25). As an index of oxidant stress timed urine collections were also analyzed for hydrogen peroxide by Amplex red assay (Invitrogen/Molecular Probes, Carlsbad, Calif.) following the manufacturer's protocol. […]

[2] = test system: Nox4; assay: Nox4 protein in cultured podocytes (immunoblot, confocal); type: cell-based, mouse; details: adiponectin for 16 h
[3] = test system: AMPK; assay: AMPK activity (p-Thr172 AMPKα) in podocytes by immunoblotting and confocal microscopy; type: cell-based, mouse
Excerpt: Western immunoblotting: Total protein from mouse podocytes was solubilized in lysis buffer containing 1% Triton X-100, Protease Inhibitor Cocktail (Mini Complete Protease Inhibitor Cocktail, Roche, Germany), PMSF, and phosphatase inhibitors. Protein was resolved on SDS-PAGE and transferred to a nitrocellulose membrane (Bio-Rad, Hercules, Calif.) as previously described (29). The membrane was immunoblotted initially with rabbit anti mouse phospho-AMPKα (p-AMPKα) monoclonal antibody or with rabbit anti AMPKα monoclonal (Cell Signaling Technology, New England Bio Labs, Boston, Mass.). Subsequently membranes were blotted with a secondary donkey anti-rabbit antibody (Amersham Biosciences, Piscataway, N.J.) conjugated to horseradish peroxidase (HRP). […]
Immunohistochemistry: Immunocytochemistry was performed as described previously (30). […] Fluorescence pictures were obtained using confocal laser fluorescence microscope (LSM-510, Carl Zeiss, Jena, Germany). […] Quantitation of p-AMPKα positive cells was performed on 50 glomeruli from 4 mice in each group.
Immunohistochemistry: Immunocytochemistry was performed as described previously (30). […] Fluorescence pictures were obtained using confocal laser fluorescence microscope (LSM-510, Carl Zeiss, Jena, Germany). […] Quantitation of p-AMPKa positive cells was performed on 50 glomeruli from 4 mice in each group. […]

[4] = test system: Adiponectin KO (Ad−/−) mice; assay: Urine albumin/creatinine ratio in treated adiponectin KO mice; type: in vivo, mouse; details: AdKO mice at 4 months of age; gAd 25 μg twice daily for 10 days (gAd or fAd)
Experimental: Adiponectin administration and animal studies: The mice were treated with 25 μg of recombinant human globular domain adiponectin (gAd; PepROTech, Rocky Hill, N.J.) subcutaneously twice daily for 10 consecutive days. The control animals were given PBS alone. 24-hour urines from each mouse were collected twice: one week before the injections and on the last day of the injections. The urine albumin and creatinine were measured with a mouse Albuwell ELISA kit and a Creatinine Companion kit (Exocell, Philadelphia, Pa.) (25,26). The mice were sacrificed five hours after the final gAd injection under anesthesia. Portions of kidney cortex were fixed in buffered formalin and embedded in paraffin. A portion of kidney cortical tissue was cut into 1 mm^3 pieces and fixed in 2.5% glutaraldehyde
Interventional animal studies: The mice were treated with 25 μg of recombinant human globular domain adiponectin gAd (PepROTech, Rocky Hill, N.J.), administered 25 μg/mouse twice a day for 10 consecutive days or full-length adiponectin (fAd) was administered using an AAV vector (AAV2/8 CMV fAd virus 4×1011 GC/mouse for 10 days). A separate group of Ad−/− mice were treated with 5-aminoimidazole-4-carboxamide-1-beta-D-ribonucleoside (AICAR) with a single i.p. dose of 300 mg/kg. The control animals were given PBS alone or control AAV. 24-hour urines from each mouse were collected before treatment and on the last day of the treatment period. The urine albumin and creatinine were measured with a mouse Albuwell ELISA kit and a Creatinine Companion kit (Exocell, Philadelphia, Pa.) (26, 25). As an index of oxidant stress timed urine collections were also analyzed for hydrogen peroxide by Amplex red assay (Invitrogen/Molecular Probes, Carlsbad, Calif.) following the manufacturer's protocol. Portions of liver, muscle and kidney was snap-frozen in liquid nitrogen for RNA isolation. An additional aliquot of normal kidney was frozen in OCT for immunofluorescent staining. […]

B1: adiponectin: 30 kDa adipocyte-secreted protein; in the first series of tests the recombinant globular domain was used, later gAd or fAd (protein, UniProt Q15848 19-244, looked up)
Adiponectin: ETTTQGPGVLLPLPKGACTGWMAGIPGHPGHNGAPGRDGRDGTPGEKGEKGDPGLIGPKGDIGETGVPGAEGPRGFPGIQGRKGEPGEGAYVYRSAFSVGLETYVTIPNMPIRFTKIFYNQQNHYDGSTGKFHCNIPGLYYFAYHITVYMKDVKVSLFKKDKAMLFTYDQYQENNVDQASGSVLLHLEVGDQVWLQVYGEGERNGLYADNDNDSTFTGFLLYHDTN
Podocyte foot process fusion / effacement [1]: improved podocyte foot process effacement; also recorded: restored podocyte foot processes
Podocyte Nox4 protein [2]: sufficient to suppress podocyte Nox4
AMPK activity (AMPKα phosphorylation on Thr-172) in podocytes ([3]; globular adiponectin 3 μg/ml, 24 h, serum-free, normal glucose): increased
Effect on the high glucose (HG) decrease of AMPK activity in podocytes ([3]; high glucose exposure plus adiponectin): prevented; also recorded: blocked
Urine albumin/creatinine ratio (albuminuria) [4]: normalized albuminuria levels; also recorded: restores normal albuminuria
